Measured values from patent US20230357790, “SELF-TARGETING EXPRESSION VECTOR” (Touchlight IP Limited, published 2023).

Molecular target: Streptavidin (UniProt P22629 P22629:25-183)
Test: no specific binding to plate; same buffer, room temp
Settings: chain copies: 4
Protocol: Obtained vectors were tested for binding a streptavidin-coated plate. The amount of DNA retained on the plate was detected by pico-green incorporation assay.
DNA was mixed with streptavidin-coated plate in binding buffer for 2 h, at room temp. Plate was washed 3× with same binding buffer, and the DNA that was bound to the plate was detected with PicoGreen assay in plate, without detaching DNA. [0490] Binding buffer (10×) [0491] 1 M NaCl [0492] 20 mM MgCl2 [0493] 50 mM KCl [0494] 10 mM CaCl2) [0495] 200 mM Tris-HCl, pH 7.6

Sequence of Streptavidin (P22629 25-183, one chain of several): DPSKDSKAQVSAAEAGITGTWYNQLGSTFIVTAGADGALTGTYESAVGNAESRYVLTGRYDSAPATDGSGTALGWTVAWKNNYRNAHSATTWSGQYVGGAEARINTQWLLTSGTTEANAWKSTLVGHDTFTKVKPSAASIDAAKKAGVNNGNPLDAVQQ

B1: noApt vector cap (control) (structured_DNA)
DNA: CTGCTCACCTGCCAGCTACGGACGCGGAACGCGTCCGTAGCTGGCAGGTGAGCAG
**Q.** Does B1 bind?
**A.** no binding
